Measurements published in the DeepSol protein solubility set.

assay: soluble on expression in E. coli; label from the status in PepcDB or PDB records

Q: With “MNPTDWIDTGAVPPRPLPATVDAALAYLSEALGHPVYAHWTLARVKRRYGSLSDAKAAQPTVLKLLLAHDGAVEYWERGRLRTVPADQAPGPAMVLARLLHTHRRRFRLAASSGNAAAVPAASEAAGLVAAPWLAAYSHAEHTWLARAGRFAQLHAATNTLGVANDAQALALFLRDRTGRSPHTLRAYGAELRRLMRWCGVHEVGPLSDLTRQQLLAYRHTLQHGEPGTENASPQLSEATCTRALAVVASLYGYWYDTGYLQANPAAGLSAGSRARAGFAPTRLIPPALLDACDAWLDASAVDASLPALRRRAIWALYRYAGARLAELVWSDEAALPRLEAEVPGHWTLYVCGKGRKVRAIPLPVPCVAVLRAYRHARGLPPEPPAHEALPVIHGHKGEALQSAGLYREVKAIFAAVADGLQARDPAQALLLRAASPHWLRHAYARTLVVDHQVPLPAAQALLGHASVQTTAAYARTDLTQLRAFVDATFADDAPLEHHHHHH” as the sequence, how does the “soluble on expression in E. coli” value read?
A: The value was “not soluble”.

Q: With “MNPVLKSSKLVIFDLDGTLYEGTDHFDYYANHLKQNVPQSQQLDFWRDYTAMKDGHHPVQIGKGYDVKRDYILTIDPMTISVQSVQTWDGSYVPAEEWETLYSDPVSFDFETIIAVGDGWWYPFVTAKHYGVEDCYASYVATKEYMVTDEFELTPLPGLREGLIELKATKEIVLVTNSDREDVQRLLHELHLHDVFNHIITSAKKPTRTTDIFKEVVHQYEVDMSQVVSVGDNFMNEIAQALTLGMQGIYIHPQRASEVAHDHLTVIRSVVELFKNLEHHHHHH” as the sequence, how does the “soluble on expression in E. coli” value read?
A: Its value is “soluble”.

Q: Which “soluble on expression in E. coli” value does the source give for “MNQDLSQTFLAITRNSTDLEWLQGALAPLGQVVGADGSLDELLALVDVTFANLVFVGLDREHVVAQAALIEGALEAKPMLAIVALGDGMDNQLVLNAMRAGARDFVAYGSRSSEVAGLVRRLSKRLPAVTPNTQLGGLTVLYGAQGDGDGALLASHLALVVQKSGQQTLLLDLGLPRGDSLALLGLESSFHFGDALRHLRRLDATLIDSAFTSAEAGLRILAYASHDAPLEHTSAAELYMLLSALRQHFQHIVVNLVGQPDSEALRTFVSHCDKLLWCTDQNVLDCRRNLAVLNHWREKGMKLEHARLLVDRYLRTVAPDSETLGKTFGLEVIAVLAYSPEVRLNAKNQGVTLFELAPREALTQSLRTLGERLAKRSQGLPKPKAGWLNRIMGGRLEHHHHHH” here?
A: Its value is “not soluble”.

Q: For “MNQEVRFSRLEPEQRKALLIEATLACLKRHGFQGASVRKICAEAGVSVGLINHHYDGKDALVAEAYLAVTGRVMRLLRGAIDTAPGGARPRLSAFFEASFSAELLDPQLLDAWLAFWGAVGSIEAIGRVHDHSYGEYRALLVGVLRQLAEEGGWADFDAELAAISLSALLDGLWLESGLNPATFTPRQGVQICEAWVDGLEAGAHRRFRRAMEAC”, which “soluble on expression in E. coli” value is on record?
A: The value was “soluble”.

Q: For “MNQKLKVAIIGSGNIGTDLMIKVLRNAKYLEMGAMVGIDAASDGLARAQRMGVTTTYAGVEGLIKLPEFADIDFVFDATSASAHVQNEALLRQAKPGIRLIDLTPAAIGPYCVPVVNLEEHLGKLNVNMVTCGGQATIPMVAAVSRVAKVHYAEIVASISSKSAGPGTRANIDEFTETTSKAIEVIGGAAKGKAIIIMNPAEPPLIMRDTVYVLSAAADQAAVAASVAEMVQAVQAYVPGYRLKQQVQFDVIPESAPLNIPGLGRFSGLKTSVFLEVEGAAHYLPAYAGNLDIMTSAALATAERMAQSMLNA”, which “soluble on expression in E. coli” value is on record?
A: Its value is “soluble”.

Q: With “MNQLKGIHHVTAITSSAEKNYEFFTHVLGMRLVKKTVNQDDIQTYHLFFADDKGSAGTDMTFFDFPGVPKGVHGTNEISKTSFRVPTDAALAYWVKRFDRLEVEHTGIKEQFGKKTLSFVDFDDQHYQLISDELDKGIESGTPWQNGPVPLEYAITGLGPVFIRIANFSFFKEVLEKVLLFKEIAQEGEFYLFEVNKGGNGASVIVEHNTVLPEAQQGFGTVHHAAFRVEDRAVLEEWIERISSVGLPSSGYVNRHFFESLYARVAPQILFEFATDGPGFMGDESYETLGEKLSLPPFLEPKREEIEKLVRPIDTVRSTKEFIKE” as the sequence, how does the “soluble on expression in E. coli” value read?
A: The value was “not soluble”.

Q: With “MNQSCPNKTSFKIAFIQARWHADIVDEARKSFVAELAAKTGGSVEVEIFDVPGAYEIPLHAKTLARTGRYAAIVGAAFVIDGGIYDHDFVATAVINGMMQVQLETEVPVLSVVLTPHHFHESKEHHDFFHAHFKVKGVEAAHAALQIVSERSRIAALV” as the sequence, how does the “soluble on expression in E. coli” value read?
A: The value was “soluble”.

Q: For “MNRFIIADATKCIGCRTCEVACAVSHHENQDCAALSPDEFISRIRVIKDHCWTTAVACHQCEDAPCANVCPVDAISREHGHIFVEQTRCIGCKSCMLACPFGAMEVVSSRKKARAIKCDLCWHRETGPACVEACPTKALQCMDVEKVQRHRLRQQPV”, which “soluble on expression in E. coli” value is on record?
A: Its value is “not soluble”.

Q: For “MNRIAKLLKTKYPIVQGPMAGITLGEFASTVSEAGGLGVIASAGLSPEKLKEEIEKVKNRTDKPFAVNIPIYQPGSEKNLETALKADVGIIYTSAGSPEKYTERVKESGAKVIHKVSRLKEGLKAEKAGVDAVVAMGFEAGGIIGRSGVTSFCLIPELADNLSIPVVAAGGIADERGFAAALILGAEGVEIGTRLLATKECPVPESIKQAILKATCDSTMVIESPVVMRALKPELSGDSENPALGGQVSGLIKEILTVEEVIRKIAEGLNKAKF”, which “soluble on expression in E. coli” value is on record?
A: Its value is “not soluble”.

Q: For “MNRIEHYHDWLRDAHAMEKQAESMLESMASRIDNYPELRARIEQHLSETKNQIVQLETILDRNDISRSVIKDSMSKMAALGQSIGGIFPSDEIVKGSIGGYVFEQFEITCYTSLLAAAKNAGDTVSIPIIEAILNEEKQMADWLIQHIPQTTEKFLIRSETDGVEAKK”, which “soluble on expression in E. coli” value is on record?
A: Its value is “not soluble”.

Q: For “MNRIFCALMRADAARFREVVFPCALLQNHPHQFPHVLARLEFFAPPDQRNCLLLPRVLVKRSLAAKEPSKVNFLSVNLRKELHEEAKSSKKTNLK”, which “soluble on expression in E. coli” value is on record?
A: The value was “not soluble”.

Q: Which “soluble on expression in E. coli” value does the source give for “MNRLVILARVSTSKQDTERQLSDLNEVCTRNQYDLVNTFTETVSGKYGITERTTLQAIIKMAELKQFDKLLVSEVSRIGRKTSEVLKFIEILTERKISIYIHNYGLETLDRNLNQNPLIGMMINFLSSFSDMERTLTISRVKSGLEEARRRNVILGRPKNSTKDIDIFIDENKRLFELIKKQLTIREIARLTYKSTTTVVKAIKLYKLHPEKFLSAT” here?
A: The value was “not soluble”.

Q: Which “soluble on expression in E. coli” value does the source give for “MNRTLYTLLFHLGLPLVALRLWWRARQAPAYAKRIGERFSLSLPEVPPGGIWVHAVSVGESIAAAPMVRALLERHPQLPVTVTCMTPTGSERIRALFGEQVRHCYLPYDLPWAAARFLDRVRPRLAVIMETELWPNHIHACAVRGIPVALANARLSERSARGYARFAGLTRPMLAELSWIAVQTEAEAERFRRLGARPECVSVTGSIKFDLRIDPQLPLAAAALREEWDATARPLWIAASTHAGEDEIVLAAHRRLLETRPDALLILVPRHPERFAGVHELCRREGFATVRRSGGEPVARATQVLLGDTMGELLFLYALADIAFVGGSLVPNGGHNLLEPAALGKPVFAGPHLFNFLDIAAQLRDAGALLEVTDAGELCDGLARLWAQPEVATAMATAGEKVLRNNQGALERLLAGLARLLGRGG” here?
A: The value was “not soluble”.

Q: For “MNRTPSLHTKEKKGFIDMHTMWKGSISFGLVNIPIKLYAATEDKDIKLRSLHKEDHAPIKYEKVCTNCEKTLSPDEIVKGYEYVKGKYVVLTDEDLKSLKQEHEEKAVEIVDFVQLQEIDPIYFNRSYFVGPGDNGTKAYTLLREALRSTGKIGIANMTIRSKQQLAILRVYENCIVMESIHYPDEVRS”, which “soluble on expression in E. coli” value is on record?
A: Its value is “not soluble”.

Q: For “MNSEIFRIFRKKYSEEIRNPPMNATTLPEALKLMQYIGDAIGTIRDPQELFRTVTDKLRLLFAFDSAVIITIDRERREASVFFEMLRFELPEQLRHQTRSIAGTWLEGHLDDRTVTVASIARDIPSFGADGAPLLWTLHELGMRQIVLSPLRSGGRVIGFLSFVSAEEKLWSDGDKSLLSGVSSSIAIAVSNALAYEELRQRE”, which “soluble on expression in E. coli” value is on record?
A: The value was “not soluble”.

Q: Which “soluble on expression in E. coli” value does the source give for “MNSSTANKQKGIQLIPFTVDKVVEQVNEIPPGVQLIHAPQVWEKSAKGKDIVVAVLDTGCDMNHIDLKDRIIGGRNFTKDYEGDPNIYLDNNGHGTHVAGTIAATENGVGVLGVAPLAKMLVLKVLAGDGSGSYEQIIEAIHYAVNWRGPNKERVRVISMSLGGPQDVPELHEAIQNAVKQDVLVVCAAGNNGDCNDNTEELDFPGAYSEVIEVGAVNLERKIACFSNSNQEIDLVAPGDEILSTYPEGKYAVLSGTSMATPHVAGALALLIKQCEREYGRKLSEPEIYAQLIKRTVPLGYERTSEGNGLIDLLKE” here?
A: Its value is “not soluble”.

Q: Which “soluble on expression in E. coli” value does the source give for “MNSVLSNIEKLDTYILRRNEYVAESKDEPNKLNTSRKLEVTTKKNQSNNKKRPPPINKARKSLPSIFRRAEENKDSAQIITPTGSKIIGSPLYKRSKSDSFFDHAFNFDKNLGKGSFGEVVAATCRSTSKKFAIKKIPFSKLSKDQYREAYGHMNIPCHPNIVRFHQAWIDKQILHIQLEMCDKSLAAYCHGIDWLEDKELWNVFLDILQGLGHLHNNFMLHNDIKPDNIFMTKNKVCKLGDFGLISDMRSEPINNSSNKHYQSEGDGKYCSKEAINGTLSIFSDIFSFGISILEVGTNIHLPSYGTGWEPIRKWEIPEEILEPMSDELRELVKQMMDKAPTRRPTCSELMKNHVVKEKLRIRKQEVEHIPSESQFQPISYLTTESPLGSRESSCSSIDFLDHFENAEKKTPFVSKLNFDLEDDEDEYEVFSPPRTPVKKSRYQQTMPEVSPPRKIQKLFQRKNLFDE” here?
A: The value was “not soluble”.

Q: For “MNTASLVRSLSRVALRSSQVVRMAAPRHFSQSAKVLSVTPELQQALNREIEAEQQLSSDNLQGAVAPTFAGFQVTNKDAEVRLTKKNGSEDILVVFNVNHSVDMDEGFDDEPSQAVAPVPVAMPPFTVEITKGDQRLCFHLELVPVDDQPDEYDFRVEEFYVAPSAKNGNEDVPSEVYASSGKYIDPDLHDLLFVRYLEERGLDARFCKTLVAYATHYEHSQYVGLLDKIKKFISK”, which “soluble on expression in E. coli” value is on record?
A: Its value is “not soluble”.

Q: Which “soluble on expression in E. coli” value does the source give for “MNTELQPKLEKSAVNFQAKPRKQKIRKDPNAPFIREKLELPDGHNKLLLHSCCAPCSGEVMEAILASGIEFTIYFYNPNIHPLKEYLIRKEENIRFAKKFGIPFIDADYDRQNWFDRAKGMEWEPERGIRCTMCFDMRFEKAAEYAHKHGFPVFTSCLGISRWKDMNQINGCGHRAAEKYDDVIYWDYNWRKEGGSQRMIEISKRERFYQQEYCGCVYSLRDSNKWREETGRQKIEIGKLYYSAD” here?
A: Its value is “not soluble”.

Q: With “MNTLTTTSVVLPAPRPAINQGIDINNEMVLNHTAIYENCLAQVTQENTVENALMLLDPYGTAPLSAYAGVWSLEPAEIIVTVQDAAKTAMPVEHLYTLTAGANLLPVLGLVADTENRIVFSQADTPLAVYTLITQPLPPVDSAEVVLGFPIINVTQPATDANKMAPGFYFITHFDRYNYALDQNGLVRWYVTQDYPSYNFVRIDNGHFLTTSEAKNTYLDMYEFDMMGRLHTFYNLDNQFHHSIWPWDSNTIVAPSEYTSGRPDDLKTNEDGVSVVDLTTGLETAYYDMAKVLDTTRVSRPSGTAPGEDPTVKDWLHINQSYVNETNQLLIASGRHQSAVFGVDLQTQALRFILSTHEDWDDAYQPYLLTPVDSEGVALYDFSKQEDIDAADRDFWTWGQHNVVEIANNTPGIVEFMVFDNGNYRSRDDSKSLLPPDNYSRIVHFVVNMNEMTVMRPFEYGKELGARGYSSCVSAKAIQQNGNIVVHFADCTFDENGRAISCQPGESDIIDPQAGSEAMGLLILQEIAPTEKTVLFEATMTSGYYKNAETNGEGYRYDITSFRVYKMDLYALEHHHHHH” as the sequence, how does the “soluble on expression in E. coli” value read?
A: Its value is “soluble”.
